Measured values taken from patent US7432070B2, “Homogenous assay for enzymatic activity” (Pierce Biotechnology, Inc., priority 2003, dated 2008).
Non-standard residues stand in square brackets, D forms with d. No end group written: not given here. pS = N[C@@H](COP(=O)(O)O)C(=O)O; Nva = CCC[C@H](N)C(=O)O

Assays:
[1] = biological target: T1, MMP-3 (Homo sapiens, UniProt P08254); assay: Km determination for MMP-3 using the protease assay; type: biochemical; conditions: substrate at 1, 2, 5 and 10 μM, 0.88 mU/ml MMP-3, 5 minutes, room temperature, N=3; read-out: Km of labeled peptide substrate for MMP-3
T1 construct: Recombinant MMP-3 catalytic subunit; purchased Calbiochem
Text: (§1) Pepsin A was purchased from Sigma. TPCK Trypsin was obtained from Pierce Biotechnology.

[2] = biological target: T2, Calpain 1 (Homo sapiens, UniProt P07384); assay: Km determination for Calpain 1 using the protease assay; type: biochemical; conditions: substrate at 0.078, 0.15, 0.31 and 0.62 μM, 13.15 U/ml Calpain 1, 5 minutes, room temperature, N=3; read-out: Km of labeled peptide substrate for Calpain 1
T2 construct: Calpain 1 from human erythrocytes; purchased Calbiochem; host or cells: human erythrocytes
T2 sequence (P07384 1-714): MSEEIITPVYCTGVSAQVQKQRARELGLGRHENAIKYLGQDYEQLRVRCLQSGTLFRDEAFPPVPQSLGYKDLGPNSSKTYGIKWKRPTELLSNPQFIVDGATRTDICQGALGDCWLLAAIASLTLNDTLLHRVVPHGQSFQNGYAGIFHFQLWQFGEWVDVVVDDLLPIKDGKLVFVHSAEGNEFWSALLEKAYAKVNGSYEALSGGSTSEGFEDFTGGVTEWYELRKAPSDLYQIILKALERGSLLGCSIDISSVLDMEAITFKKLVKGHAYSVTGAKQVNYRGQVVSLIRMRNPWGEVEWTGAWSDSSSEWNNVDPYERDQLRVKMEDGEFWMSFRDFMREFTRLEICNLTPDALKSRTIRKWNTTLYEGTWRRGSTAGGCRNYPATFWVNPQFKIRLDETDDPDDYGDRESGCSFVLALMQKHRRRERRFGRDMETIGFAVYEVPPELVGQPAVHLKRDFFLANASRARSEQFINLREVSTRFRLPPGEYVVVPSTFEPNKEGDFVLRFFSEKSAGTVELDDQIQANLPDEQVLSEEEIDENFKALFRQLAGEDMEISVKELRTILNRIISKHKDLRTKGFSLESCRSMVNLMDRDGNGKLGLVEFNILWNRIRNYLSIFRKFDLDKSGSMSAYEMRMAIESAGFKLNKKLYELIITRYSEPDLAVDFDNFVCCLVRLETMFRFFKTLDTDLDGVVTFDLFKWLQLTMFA
T2 sequence (P04632 1-268 partner): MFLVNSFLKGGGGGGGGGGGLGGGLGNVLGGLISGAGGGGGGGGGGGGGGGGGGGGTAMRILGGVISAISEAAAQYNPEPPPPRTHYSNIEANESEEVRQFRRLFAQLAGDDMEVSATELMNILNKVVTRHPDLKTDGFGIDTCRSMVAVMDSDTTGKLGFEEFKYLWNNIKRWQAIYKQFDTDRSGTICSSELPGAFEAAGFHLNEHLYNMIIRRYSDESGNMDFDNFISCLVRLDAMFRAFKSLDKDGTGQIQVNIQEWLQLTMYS
Protocol: as §1
Calpain 1 Lissamine rhodamine-labeled peptide substrate (Dye-[…] PRDpSA) (SEQ. ID NO 3) at 0.078, 0.15, 0.31 and 0.62 μM were digested with 13.15 U/ml Calpain 1. The Lissamine rhodamine-labeled peptide was prepared in 25 mM Tris, 150 mM NaCl pH 7.5, 10 mM CaCl2, and Calpain 1 was prepared in 25 mM Tris, 150 mM NaCl pH 7.5. […] N=3.

T1 sequence (P08254 100-272 limits assumed, species assumed): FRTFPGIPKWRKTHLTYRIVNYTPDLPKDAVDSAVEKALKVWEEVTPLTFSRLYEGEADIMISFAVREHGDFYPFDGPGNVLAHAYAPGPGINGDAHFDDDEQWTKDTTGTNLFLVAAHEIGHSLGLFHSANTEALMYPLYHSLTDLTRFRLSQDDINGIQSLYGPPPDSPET

| Substance | Km [1] | Km [2] |
| --- | --- | --- |
| Dye-RPKPVE-Norvaline-WRKpSA: MMP-3 Lissamine rhodamine-labeled peptide substrate, label at the N-terminus ({Lissamine rhodamine}-RPKPVE[Nva]WRK[pS]A) | 1.44 ± 0.15 µM |  |
| Dye-QQQEVYGMM PRDpSA: Calpain 1 Lissamine rhodamine-labeled peptide substrate, label at the N-terminus ({Lissamine rhodamine}-QQQEVYGMMPRD[pS]A) |  | 0.17 ± 0.01 µM |
